B1: peptide of Example 1 (DGEFF) (peptide)
peptide: DGEFF
notes: Synthetic peptide made by AnyGen Co., Ltd
B2: peptide of Example 2 (DGEF) (peptide)
peptide: DGEF
notes: as for B1

Target: T1, extracellular domain recombinant protein RAGE (11629-H08H, Sino Biological Inc.) (UniProt Q15109 23-342, labeled with RED fluorescent dye NT-647-NHS (sites not given))
T1 construct: extracellular domain; Bought protein; also called Receptor for Advanced Glycation End products
Experiment: MST (Microscale Thermophoresis), NT-647-labeled RAGE extracellular domain, peptide titrated 50 uM to 1.52 nM, mean of three runs
Method: Specifically, the binding capacity of the peptide of Example 1 or 2 to RAGE was measured using MST (Microscale Thermophoresis).
Using a kit {Monolith NT™ Protein Labeling Kit RED-NHS (L001, NanoTemper Technologies)}, an extracellular domain recombinant protein RAGE (11629-H08H, Sino Biological Inc.) was bound to a RED fluorescent dye NT-647-NHS and then purified. Thereafter, a RAGE solution in which the concentration of the RED fluorescent dye NT-647-NHS labeled RAGE in an MST buffer (50 mM Tris-HCl pH 7.4, 150 mM NaCl, 10 mM MgCl₂, 0.05% Tween-20) solution was 20 μM was prepared. Also, a peptide solution was prepared in a 16-step dilution series, in which dilution was repeated with the MST buffer until the concentration of the peptide of Example 1 or Example 2 became 1.52 nM starting from 50 μM. Thereafter, the RAGE solution and the peptide solution were mixed in amounts of 100 μl each, injected into a capillary tube and then placed in the order of concentration in a Monolith NT. 115 tray (G009, NanoTemper technologies). The software was operated in accordance with the Monolith NT. 115 operating method. The same procedure was repeated three times, and the mean value of Kd (dissociation constant) was obtained.

T1 sequence (Q15109 23-342 limits assumed): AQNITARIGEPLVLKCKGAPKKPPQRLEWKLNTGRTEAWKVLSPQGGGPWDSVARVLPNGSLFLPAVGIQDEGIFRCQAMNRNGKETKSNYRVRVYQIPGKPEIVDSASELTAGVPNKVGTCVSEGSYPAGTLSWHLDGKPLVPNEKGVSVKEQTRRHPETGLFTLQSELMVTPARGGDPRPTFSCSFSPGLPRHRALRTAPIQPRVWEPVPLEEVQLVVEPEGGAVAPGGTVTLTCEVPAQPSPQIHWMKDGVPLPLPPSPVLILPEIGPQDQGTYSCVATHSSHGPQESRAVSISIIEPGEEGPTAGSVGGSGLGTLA

| Binder | Kd |
| --- | --- |
| B1 | 76.9 nM |
| B2 | 80.9 nM |
